These results are taken from paper PMC12681835.

What all share (assay): co-IP; HEK293 cells co-transfected with AnkB-220-HA (WT or mutant) and NrCAM plasmids in equimolar amounts; Brij98 lysate diluted in PBS, 0.1% TritonX-100; AnkB-HA precipitated with mouse anti-HA on Protein A/G magnetic beads overnight at 4 °C; blot for NrCAM, reprobed with anti-HA; NrCAM/AnkB ratio by densitometry
The target of assay [1] is AnkB-220-HA R297E (human).
The target in assay [2] is AnkB-220-HA A373V (maternally inherited ASD missense mutation) (human).
Assay [3] addresses AnkB-220-HA H374A (human).
Assay [4] concerns the target AnkB-220-HA R308E (human).
The target in assay [5] is AnkB-220-HA H374W (human).

As for “Neuron-glial related L1-CAM (NrCAM), mouse, WT (natural protein)”, the percent decrease of co-immunoprecipitation compared to WT AnkB in assay [1] was 60%; in assay [3] it was 80%; in assay [4] it was 90%; in assay [5] it was 80%. In assay [2], the fold increase of co-immunoprecipitation compared to WT AnkB is 1.7 fold.
